Biological target: PP1G(7–300) (mouse) (UniProt P63087)

eIF2a^P (1–185) R66E; K86E double mutant (domain or fragment)
dephosphorylation as a substrate of the PPP1R15B-MBP-PP1-actin ternary complex, against wildtype eIF2a^P (Figure 8B): > 10 fold
dephosphorylation as a substrate of the PPP1R15B-MBP-PP1 binary complex, against wildtype eIF2a^P (Figure 8B): 2 fold
